One may read the koff as the rate constant with which the complex falls apart. Higher therefore signals fast dissociation. One may read the Kd as a measure of binding affinity in units of concentration. The low end stands for tighter binding, the high end for weaker binding.

Where a chain is given by its changes, count along the chain named. Numbers in names are those of the source.

First the molecules themselves.
B1: H11-H4 L106F mutant nanobody (VHH)
VHH: QVQLVESGGGLMQAGGSLRLSCAVSGRTFSTAAMGWFRQAPGKEREFVAAIRWSGGSAYYADSVKGRFTISRDKAKNTVYLQMNSLKYEDTAVYYCAQTHYVSYLFSDYATWPYDYWGQGTQVTVSS
B2: H11-H4 H100Y mutant nanobody (VHH)
VHH: B1 VHH with H100Y, F106L
B3: H11-H4 V102Y mutant nanobody (VHH)
VHH: B1 VHH with V102Y, F106L
B4: H11-H4 nanobody, wild type (VHH)
VHH: B1 VHH with F106L
B5: H11-H4 L106W mutant nanobody (VHH)
VHH: B1 VHH with F106W
B6: ab8 nanobody, wild type (VHH)
VHH: EVQLVESGGGLVQPGGSLRLSCAASGFTFDDYAMSWVRQAPGKGLEWIGRMYNNGRTSYNPSLKSLVTISRDNSKNTLYLQMNSLRAEDTATYYCARDNLGYRPSENLYGMDVWGQGTTVTVSS
B7: ab8 E127W mutant nanobody (VHH)
VHH: B6 VHH with E106W

The first experiment concerns the target T1, SARS-CoV-2 spike protein receptor binding domain, wild-type (Wuhan type) (SARS-CoV-2, UniProt P0DTC2). Nature of the experiment: BLI.
In the case of B1, the koff stood at 0.149 s⁻¹.

Molecule B2 displayed a koff of 0.145 s⁻¹.

Molecule B3 gave a koff of 0.543 s⁻¹.

B4: the koff turned out to be 0.0406 s⁻¹.

As for B5, the koff was determined as 0.739 s⁻¹.

For a further experiment, the target named is T1, SARS-CoV-2 spike protein receptor …. Nature of the experiment: BLI. The source holds these as a separate data set. (In general: Biolayer interferometry detects binding as a change in optical thickness at a sensor tip.)
Consider B6, for which the koff is 0.0291 s⁻¹.

In turn, B7 yielded a koff of 0.0148 s⁻¹.

For the next experiment the target is unchanged. The experiment can be described thus: BLI. The source holds these as a separate data set.
Regarding B6, the affinity, expressed as Kd, was 51.4 nM.

Molecule B7 yielded a dissociation constant (Kd) of 2.18 nM. Compared with the last molecule, the Kd is about 24-fold lower.

For a further experiment the target is unchanged. Nature of the experiment: BLI. This is another data set of the same source.
B1 yielded a Kd of 164 nM.

B2 yielded a dissociation constant (Kd) of 238 nM. The Kd values of the last two molecules are within 1.5-fold of each other.

As for B3, binding was characterised by a dissociation constant (Kd) of 180 nM.

Turning to B4, binding was characterised by a dissociation constant (Kd) of 63.6 nM.

Consider B5, for which binding was put at a Kd of 132 nM.
